According to US20060294618A1 (CORNELL RESEARCH FOUNDATION, published 2006):

How the values were obtained:
[1] = target: T1, TEV-HAT VPg, yeast two-hybrid bait fusion protein expressed from pEG202 (Tobacco etch virus, strain HAT, UniProt P0A7C2 1-202; P04517 1850-2037); test: yeast two-hybrid, beta-galactosidase assay
T1 sequence (looked up): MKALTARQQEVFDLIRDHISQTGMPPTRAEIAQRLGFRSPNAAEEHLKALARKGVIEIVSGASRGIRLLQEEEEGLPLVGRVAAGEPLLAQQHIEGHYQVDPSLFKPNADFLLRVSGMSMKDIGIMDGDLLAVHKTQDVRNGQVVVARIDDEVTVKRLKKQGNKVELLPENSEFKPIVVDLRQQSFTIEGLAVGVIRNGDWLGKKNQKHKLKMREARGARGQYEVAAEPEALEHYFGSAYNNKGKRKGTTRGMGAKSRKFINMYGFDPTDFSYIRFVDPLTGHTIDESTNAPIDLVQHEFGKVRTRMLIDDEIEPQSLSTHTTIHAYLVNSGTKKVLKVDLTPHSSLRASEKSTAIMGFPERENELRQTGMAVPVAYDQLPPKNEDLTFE
Text: Bait plasmid pEG202 was used to express the fusion protein TEV-HAT VPg. The prey plasmid pJG4-5 was used to express pepper eIF4E. pEG202: Pto and PJG4-5:AvrPto were served as a positive control.

[2] = target: T2, GST-VPgHAT (Tobacco etch virus, strain HAT, UniProt P04517 1850-2037); test: GST pull-down, 35S-labeled in vitro-translated eIF4E
T2 construct: Immobilized on glutathione-Sepharose 4B beads; also called TEV-HAT VPg (GST fusion); not shown: glutathione S-transferase (GST)
T2 sequence (looked up): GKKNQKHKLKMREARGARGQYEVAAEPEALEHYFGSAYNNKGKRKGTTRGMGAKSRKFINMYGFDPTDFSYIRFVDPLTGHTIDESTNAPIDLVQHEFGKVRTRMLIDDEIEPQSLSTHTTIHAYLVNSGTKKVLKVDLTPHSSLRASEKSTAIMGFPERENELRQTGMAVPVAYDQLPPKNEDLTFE

| Binder | binding result [1] | binding result [2] |
| --- | --- | --- |
| eIF4E-234 mutant translation initiation factor eIF4E (Capsicum chinense PI 159234, pvr1 allele), yeast two-hybrid prey fusion expressed from pJG4-5 (other, not shown: fusion partner encoded by prey plasmid pJG4-5) MATAEMEKTTTFDEAEKVKLNANEADDEVEEGEIVEETDDTTSYLSKEIAAKHPLEHSWTFWFDNTVAKSRQAAWGSSLRNVYTFSTVEDFWGAYNNIHHPSKLVVRADLHCFKHKIEPKWEDPVCANGGTWKMSFSKGKSDTSWLYTLLAMIGHQFDHEDEICGAVVSVRGKGEKISLWTKNAANETAQVSIGKQWKQFLDYSDSVGFIFHDDAKRLDRNAKNRYTV | no binding |  |
| eIF4E-234 (pvr1), 35S-labeled, translated in vitro from pET16b (other, 35S-labeled (in vitro translation in reticulocyte lysate), also called resistant allele) MATAEMEKTTTFDEAEKVKLNANEADDEVEEGEIVEETDDTTSYLSKEIAAKHPLEHSWTFWFDNTVAKSRQAAWGSSLRNVYTFSTVEDFWGAYNNIHHPSKLVVRADLHCFKHKIEPKWEDPVCANGGTWKMSFSKGKSDTSWLYTLLAMIGHQFDHEDEICGAVVSVRGKGEKISLWTKNAANETAQVSIGKQWKQFLDYSDSVGFIFHDDAKRLDRNAKNRYTV |  | no binding |
| eIF4E-YY (pvr2^1 / pvr1^1), 35S-labeled, translated in vitro from pET16b (other, 35S-labeled (in vitro translation in reticulocyte lysate), also called YY (pvr1^1); resistant allele) MATAEMEKTTTFDEAEKVKLNANEADDEVEEGEIVEETDDTTSYLSKEIATKHPLEHSWTFWFDNPEAKSKQAAWGSSRRNVYTFSTVEDFWGAYNNIHHPSKLVVGADLHCFKHKIEPKWEDPVCANGGTWKMSFSKGKSDTSWLYTLLAMIGHQFDHEDEICGAVVSVRGKGEKISLWTKNAANETAQVSIGKQWKQFLDYSDSVGFIFHDDAKRLDRNAKNRYTV |  | no binding |
| eIF4E-DEMP (pvr2^2 / pvr1^2), 35S-labeled, translated in vitro from pET16b (other, 35S-labeled (in vitro translation in reticulocyte lysate), also called DEMP (pvr1^2); resistant allele) MATAEMEKTTTFDEAEKVKLNANEADDEVEEGEIVEETDDTTSYLSKEIATKHPLEHSWTFWFDNPEAKSKQAAWGSSRRNVYTFSTVEDFWGAYNNIHHPSKLVVGANLHCFKHKIEPKWEDPVCANGGTWKMSFSKGKSDTSWLYTLLAMIGHQFDHEDEICGAVVSVRGKGEKISLWTKNAANETAQVSIGKQWKQFLDYSDSVGFIFHDDAKRLDRNAKNRYTV |  | no binding |
